Experimental data reported in PMC12099300.

Tests used:
atezolizumab = experiment: ELISA; antibodies coated on MaxiSorp plates (5 µg/mL, 50 µL, overnight 4°C), blocked with 1% BSA; PD-L1 or VISTA 50-0.0003 µg/mL in PBS, 1 h RT; detected by anti-His-tag antibody and Strep-HRP; EC50 by nonlinear regression
onvatilimab = experiment: as above
Chain of onvatilimab (heavy, as listed by the source, chain 1 of 2): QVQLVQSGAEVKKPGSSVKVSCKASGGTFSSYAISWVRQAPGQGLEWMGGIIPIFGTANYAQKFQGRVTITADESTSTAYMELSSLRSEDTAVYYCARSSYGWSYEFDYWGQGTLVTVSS
Chain of onvatilimab (light, as listed by the source, chain 2 of 2): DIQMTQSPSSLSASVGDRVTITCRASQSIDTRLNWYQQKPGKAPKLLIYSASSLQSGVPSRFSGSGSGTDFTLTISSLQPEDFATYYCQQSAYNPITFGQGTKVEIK

| EC50 (onvatilimab) | Substance | EC50 (atezolizumab) |
| --- | --- | --- |
|  | PD-L1 (programmed cell death ligand 1) (from UniProt Q9NZQ7 19-290) (natural protein) | 0.07 nM |
| 0.1 pM | VISTA (V-type immunoglobulin suppressor of T-cell activation) (from UniProt Q9H7M9 33-311) (natural protein) |  |
